For assay [1], the target named is human FcRn complex (FCGRT and beta-2 microglobulin), recombinant, purified (human) (UniProt P55899). Briefly: SPR, protein L capture, pH 6, kinetic. A general note: SPR reads the build-up and loss of mass on a sensor chip optically.
The target of assay [2] is human FcRn (FCGRT and beta-2 microglobulin) expressed on MDCK II cells (human) (UniProt P55899). Briefly: cell-based or functional assay.
Assay [3] deals with human FcRn complex (FCGRT and beta-2 microglobulin), recombinant, purified (human) (UniProt P55899). Briefly: SPR, protein L capture, pH 7.4, steady state.

Sequence of human FcRn (FCGRT and beta-2 microglobulin) expressed on MDCK II cells (human) (P55899 24-365, chain 1 of 2): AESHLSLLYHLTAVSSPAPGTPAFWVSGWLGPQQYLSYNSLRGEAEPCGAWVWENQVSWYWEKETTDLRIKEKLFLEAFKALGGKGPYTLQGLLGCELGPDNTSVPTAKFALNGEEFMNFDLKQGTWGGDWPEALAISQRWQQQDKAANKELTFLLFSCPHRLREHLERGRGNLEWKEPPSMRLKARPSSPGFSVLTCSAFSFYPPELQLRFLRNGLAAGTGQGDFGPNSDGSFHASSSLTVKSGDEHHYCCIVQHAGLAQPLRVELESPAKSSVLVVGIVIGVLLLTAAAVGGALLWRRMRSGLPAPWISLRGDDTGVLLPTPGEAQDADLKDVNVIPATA
Sequence of human FcRn (FCGRT and beta-2 microglobulin) expressed on MDCK II cells (human) (P61769 21-119, chain 2 of 2, further chain): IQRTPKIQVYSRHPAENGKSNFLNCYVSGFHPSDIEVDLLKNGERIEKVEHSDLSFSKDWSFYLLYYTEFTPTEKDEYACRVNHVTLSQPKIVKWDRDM
Sequence of human FcRn complex (FCGRT and beta-2 microglobulin), recombinant, purified (human) (P55899 24-297 limits assumed, chain 1 of 2): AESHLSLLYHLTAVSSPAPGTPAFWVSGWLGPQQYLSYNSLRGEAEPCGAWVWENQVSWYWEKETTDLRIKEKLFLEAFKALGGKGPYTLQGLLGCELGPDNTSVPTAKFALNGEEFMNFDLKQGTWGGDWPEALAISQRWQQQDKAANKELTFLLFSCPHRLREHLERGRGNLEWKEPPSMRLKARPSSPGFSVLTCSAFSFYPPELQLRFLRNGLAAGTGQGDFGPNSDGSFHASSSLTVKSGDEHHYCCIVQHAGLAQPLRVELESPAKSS
Sequence of human FcRn complex (FCGRT and beta-2 microglobulin), recombinant, purified (human) (P61769 21-119 limits assumed, chain 2 of 2, further chain): as the sequence (P61769 21-119, chain 2 of 2, further chain) above
Sequence of antibody comprising wild-type hIgG4 (Table 2) (Fc): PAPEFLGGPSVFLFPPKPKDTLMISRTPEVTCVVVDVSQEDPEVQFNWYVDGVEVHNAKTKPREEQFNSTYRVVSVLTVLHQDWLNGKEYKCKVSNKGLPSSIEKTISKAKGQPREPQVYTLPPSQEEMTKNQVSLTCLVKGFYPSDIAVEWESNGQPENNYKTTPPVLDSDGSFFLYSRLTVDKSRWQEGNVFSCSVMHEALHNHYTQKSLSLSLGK

Usually Kd stands for the equilibrium constant for the complex coming apart. By koff is commonly meant a measure of how fast the partners let go of each other. As usually defined, the kon is a measure of how fast the partners come together. With “anti-BACE1 hIgG1 antibody, Fc modification D7 (H433K/N434Y)”, in assay [1], the Kd is 0.0922 µM, the off-rate constant (koff) was found to be 0.00192 s⁻¹ and the kon came out at 20800 M⁻¹ s⁻¹. The same substance had a Transcytosis Normalized to WT (normalized to WT) in assay [2] of 9.4.
With “anti-BACE1 hIgG1 antibody, Fc modification D92 (M252W/N434W)”, in assay [1], the Kd worked out at 0.0124 µM, the off-rate (koff) is 0.0074 s⁻¹ and the on-rate (kon) worked out at 595000 M⁻¹ s⁻¹. The Transcytosis Normalized to WT (normalized to WT) in assay [2] came out at 92. The Kd in assay [3] is 0.76 µM.
Regarding “anti-BACE1 hIgG1 antibody, Fc modification Q4 (M252Y/Q311I/M428L/N434Y)”, in assay [1], the equilibrium dissociation constant (Kd) was 0.0573 µM, the koff came out at 0.0107 s⁻¹ and the kon amounted to 186000 M⁻¹ s⁻¹. The same substance displayed a Transcytosis Normalized to WT (normalized to WT) in assay [2] of 159. The Kd in assay [3] turned out to be 1.27 µM.
On to “anti-BACE1 hIgG1 antibody, Fc modification S1 (M252Y)”, for which, in assay [1], the Kd turned out to be 0.117 µM, the koff is 0.00172 s⁻¹ and the kon was 14700 M⁻¹ s⁻¹. This substance also registered a Transcytosis Normalized to WT (normalized to WT) in assay [2] of 1.7.
On to “anti-BACE1 hIgG1 antibody, Fc modification S2 (N286E)”, for which, in assay [1], the dissociation constant (Kd) was determined as 0.303 µM, the dissociation rate constant (koff) turned out to be 0.00316 s⁻¹ and the kon came out at 10400 M⁻¹ s⁻¹. The same substance showed a Transcytosis Normalized to WT (normalized to WT) in assay [2] of 1.7.
For “anti-BACE1 hIgG1 antibody, Fc modification S4 (H310A)”, the Transcytosis Normalized to WT (normalized to WT) in assay [2] worked out at 1.1.
In the case of “anti-BACE1 hIgG1 antibody, Fc modification S6 (Q311I)”, in assay [1], the Kd amounted to 0.171 µM, the dissociation rate constant (koff) is 0.00157 s⁻¹ and the kon came out at 9190 M⁻¹ s⁻¹. Besides, the Transcytosis Normalized to WT (normalized to WT) in assay [2] was determined as 1.7.
For “anti-BACE1 hIgG1 antibody, Fc modification S7 (M428L)” the same measures were 0.178 µM, 0.00202 s⁻¹, 11300 M⁻¹ s⁻¹ and 2.
For “anti-BACE1 hIgG1 antibody, Fc modification S8 (H433K)” the same measures were 0.363 µM, 0.0048 s⁻¹, 13200 M⁻¹ s⁻¹ and 2.9.
The corresponding values for “anti-BACE1 hIgG1 antibody, Fc modification S9 (N434F)” are 0.1 µM, 0.0419 s⁻¹, 418000 M⁻¹ s⁻¹ and 6.3.
In the case of “anti-BACE1 hIgG1 antibody, Fc modification S10 (N434W)”, in assay [1], the dissociation constant Kd is 0.0549 µM, the koff turned out to be 0.051 s⁻¹ and the on-rate constant (kon) worked out at 929000 M⁻¹ s⁻¹. In assay [2], this substance gave a Transcytosis Normalized to WT (normalized to WT) of 26. The equilibrium dissociation constant (Kd) in assay [3] is 5.53 µM.
Regarding “anti-BACE1 hIgG1 antibody, Fc modification S11 (N434Y)”, in assay [1], the equilibrium dissociation constant (Kd) came out at 0.0736 µM, the koff came out at 0.0141 s⁻¹ and the kon stood at 191000 M⁻¹ s⁻¹. Also, in assay [2], the Transcytosis Normalized to WT (normalized to WT) amounted to 7.8.
For “anti-BACE1 hIgG1 antibody, Fc modification S12 (Y436I)”, in assay [1], the dissociation constant (Kd) is 0.201 µM, the off-rate (koff) is 0.00193 s⁻¹ and the on-rate constant (kon) was 9590 M⁻¹ s⁻¹. For the same substance, the Transcytosis Normalized to WT (normalized to WT) in assay [2] is 1.8.
For the substance “anti-BACE1 hIgG1 antibody, Fc modification T1 (M252Y/T307Q/N434Y)”, in assay [1], the dissociation constant Kd is 0.012 µM, the koff was determined as 0.0101 s⁻¹ and the kon stood at 874000 M⁻¹ s⁻¹. The same substance yielded a Transcytosis Normalized to WT (normalized to WT) in assay [2] of 125. In addition, in assay [3], the Kd was 0.461 µM.
For “anti-BACE1 hIgG1 antibody, Fc modification T2 (M252Y/Q311A/N434Y)”, in assay [1], the Kd was 0.02 µM, the off-rate constant (koff) was determined as 0.0178 s⁻¹ and the kon came to 908000 M⁻¹ s⁻¹. The same substance returned a Transcytosis Normalized to WT (normalized to WT) in assay [2] of 111. In addition, the Kd in assay [3] was 0.614 µM.
For “anti-BACE1 hIgG1 antibody, Fc modification T4 (M252Y/M428L/N434Y)” the same measures were 0.03 µM, 0.0201 s⁻¹, 660000 M⁻¹ s⁻¹, 100 and 2.2 µM.
The corresponding values for “anti-BACE1 hIgG1 antibody, Fc modification T5 (M252Y/H433K/N434Y)” are 0.034 µM, 0.0357 s⁻¹, 1.05e+06 M⁻¹ s⁻¹, 112 and 0.73 µM.
“anti-BACE1 hIgG1 antibody, Fc modification T6 (M252Y/N434Y/Y436I)” yielded a Transcytosis Normalized to WT (normalized to WT) in assay [2] of 133. The dissociation constant Kd in assay [3] came out at 0.459 µM.
Regarding “anti-BACE1 hIgG1 antibody, Fc modification T7 (T307Q/N286E/N434Y)”, in assay [1], the Kd turned out to be 0.019 µM, the koff is 0.0177 s⁻¹ and the kon was found to be 931000 M⁻¹ s⁻¹. Moreover, the Transcytosis Normalized to WT (normalized to WT) in assay [2] amounted to 91. Moreover, the Kd in assay [3] was 1.12 µM.
Consider “anti-BACE1 hIgG1 antibody, Fc modification T8 (T307Q/Q311A/N434Y)”, for which, in assay [1], the Kd turned out to be 0.037 µM, the koff was 0.0319 s⁻¹ and the kon amounted to 854000 M⁻¹ s⁻¹. Moreover, in assay [2], the Transcytosis Normalized to WT (normalized to WT) stood at 64. For the same substance, in assay [3], the dissociation constant Kd turned out to be 1.68 µM.
The corresponding values for “anti-BACE1 hIgG1 antibody, Fc modification T9 (T307Q/Q311I/N434Y)” are 0.52 µM, 0.00767 s⁻¹, 14800 M⁻¹ s⁻¹, 140 and 1.93 µM.
For “anti-BACE1 hIgG1 antibody, Fc modification T11 (T307Q/H433K/N434Y)” the same measures were 0.037 µM, 0.0166 s⁻¹, 445000 M⁻¹ s⁻¹, 65 and 4.8 µM.
“anti-BACE1 hIgG1 antibody, Fc modification T12 (T307Q/N434Y/Y436I)”: the Transcytosis Normalized to WT (normalized to WT) in assay [2] stood at 112.
Still for that read-out and setting: for “anti-BACE1 hIgG1 antibody, Fc modification T18 (Q311A/M428L/N434Y)” the value was 140.
Still for that read-out and setting: for “anti-BACE1 hIgG1 antibody, Fc modification T26 (H433K/N434Y/Y436I)” the value was 71.
Take “anti-BACE1 hIgG4 antibody, Fc modification T6-IgG4 (M252Y/N434Y/Y436I)”: the Transcytosis Normalized to WT (normalized to WT) in assay [2] was determined as 66. The Kd in assay [3] was 0.412 µM.
Consider “antibody comprising modified Fc M428L/N434A (LA) (Table 2)”, for which, in assay [1], the dissociation constant Kd was found to be 0.0992 µM, the koff was determined as 0.00371 s⁻¹ and the association rate constant (kon) worked out at 37400 M⁻¹ s⁻¹. Besides, the Transcytosis Normalized to WT (normalized to WT) in assay [2] amounted to 5.1.
For “antibody comprising wild-type hIgG1 (Table 2)” the same measures were 0.732 µM, 0.0164 s⁻¹, 22300 M⁻¹ s⁻¹ and 1.
The corresponding values for “antibody comprising wild-type hIgG4 (Table 2)” are 0.563 µM, 0.0119 s⁻¹, 21100 M⁻¹ s⁻¹ and 1.

(Values after patent publication US20220033520A1.)
